Reference: the supplement of paper PMC5998384

Assays:
[1] = tested on: HeLa Kyoto; test: solubility change mitosis vs G1/S (difference of NP-40 vs SDS log2 ratios) (log2 ratio difference); higher = more soluble in mitosis
[2] = tested on: HeLa Kyoto; test: melting temperature (median over replicates), in situ; higher = more thermally stable
[3] = tested on: HeLa Kyoto; test: solubility in G1/S (NP-40 vs SDS abundance) (log2 ratio); higher = more soluble; settings: cell cycle stage: G1/S
[4] = tested on: HeLa Kyoto; test: thermal stability score vs G1/S (z-score of summed log2 fold changes over temperatures); higher = more thermally stable than in G1/S
[5] = cell cycle stage: early G1 (4.5 h after nocodazole release)
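Throughout, for melting temperature (median over replicates), in situ: HeLa Kyoto cells synchronized by double thymidine or nocodazole block, proteins quantified by TMT10plex mass spectrometry, three independent biological replicates.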
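Throughout, for solubility change mitosis vs G1/S (difference of NP-40 vs SDS log2 ratios): synchronized HeLa Kyoto cells (double thymidine block for G1/S, nocodazole release for mitosis), protein amounts in NP-40 versus SDS lysates quantified by mass spectrometry, three biological replicates.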
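Throughout, for solubility in G1/S (NP-40 vs SDS abundance): HeLa Kyoto cells arrested at G1/S by double thymidine block, proteins quantified by TMT10plex mass spectrometry in mild NP-40 versus SDS extracts, three biological replicates.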
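Throughout, for thermal stability score vs G1/S (z-score of summed log2 fold changes over temperatures): synchronized HeLa Kyoto cells, proteins quantified by TMT10plex mass spectrometry, three biological replicates, mitosis taken 0.5 h after nocodazole release, G1/S directly after double thymidine block.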

Sequence | solubility change mitosis (log2) [1] | melting temperature ([2]; cell cycle stage: G1/S) [°C] | melting temperature ([2]; cell cycle stage: mitosis) [°C] | solubility in G1/S (log2) [3] | thermal stability score [4, 5] | thermal stability score ([4]; cell cycle stage: mitosis)
MRAVRRGLREGGAMAAARDPPEVSLREATQRKLRRFSELRGKLVARGEFWDIVAITAADEKQELAYNQQLSEKLKRKELPLGVQYHVFVDPAGAKIGNGGSTLCALQCLEKLYGDKWNSFTILLIHSGGYSQRLPNASALGKIFTALPLGNPIYQMLELKLAMYIDFPLNMNPGILVTCADDIELYSIGEFEFIRFDKPGFTALAHPSSLTIGTTHGVFVLDPFDDLKHRDLEYRSCHRFLHKPSIEKMYQFNAVCRPGNFCQQDFAGGDIADLKLDSDYVYTDSLFYMDHKSAKMLLAFYEKIGTLSCEIDAYGDFLQALGPGATVEYTRNTSNVIKEESELVEMRQRIFHLLKGTSLNVVVLNNSKFYHIGTTEEYLFYFTSDNSLKSELGLQSITFSIFPDIPECSGKTSCIIQSILDSRCSVAPGSVVEYSRLGPDVSVGENCIISGSYILTKAALPAHSFVCSLSLKMNRCLKYATMAFGVQDNLKKSVKTLSDIKLLQFFGVCFLSCLDVWNLKVTEELFSGNKTCLSLWTARIFPVCSSLSDSVITSLKMLNAVKNKSAFSLNSYKLLSIEEMLIYKDVEDMITYREQIFLEISLKSSLM [FPGT] | -0.353 | 54.4 | 55.1 | 0.115 | 1.19 | 2.29
MRECISVHVGQAGVQMGNACWELYCLEHGIQPDGQMPSDKTIGGGDDSFTTFFCETGAGKHVPRAVFVDLEPTVIDEIRNGPYRQLFHPEQLITGKEDAANNYARGHYTIGKEIIDPVLDRIRKLSDQCTGLQGFLVFHSFGGGTGSGFTSLLMERLSVDYGKKSKLEFSIYPAPQVSTAVVEPYNSILTTHTTLEHSDCAFMVDNEAIYDICRRNLDIERPTYTNLNRLISQIVSSITASLRFDGALNVDLTEFQTNLVPYPRIHFPLATYAPVISAEKAYHEQLSVAEITNACFEPANQMVKCDPRHGKYMACCLLYRGDVVPKDVNAAIAAIKTKRSIQFVDWCPTGFKVGINYQPPTVVPGGDLAKVQRAVCMLSNTTAIAEAWARLDHKFDLMYAKRAFVHWYVGEGMEEGEFSEAREDMAALEKDYEEVGIDSYEDEDEGEE [TUBA4A] | -0.138 | 55.6 | 54.2 | 0.111 | -0.775 | -2.94
MREIVHIQAGQCGNQIGTKFWEVISDEHGIDPAGGYVGDSALQLERINVYYNESSSQKYVPRAALVDLEPGTMDSVRSGPFGQLFRPDNFIFGQTGAGNNWAKGHYTEGAELVDAVLDVVRKECEHCDCLQGFQLTHSLGGGTGSGMGTLLISKIREEFPDRIMNTFSVMPSPKVSDTVVEPYNATLSVHQLVENTDETYCIDNEALYDICFRTLKLTTPTYGDLNHLVSATMSGVTTSLRFPGQLNADLRKLAVNMVPFPRLHFFMPGFAPLTSRGSQQYRALTVPELTQQMFDARNMMAACDPRHGRYLTVATVFRGPMSMKEVDEQMLAIQSKNSSYFVEWIPNNVKVAVCDIPPRGLKMASTFIGNSTAIQELFKRISEQFSAMFRRKAFLHWFTGEGMDEMEFTEAESNMNDLVSEYQQYQDATANDGEEAFEDEEEEIDG [TUBB6] | -0.124 | 54.8 | 53.8 | 0.0985 | -0.862 | -2.31
MREYKVVVLGSGGVGKSALTVQFVTGTFIEKYDPTIEDFYRKEIEVDSSPSVLEILDTAGTEQFASMRDLYIKNGQGFILVYSLVNQQSFQDIKPMRDQIVRVKRYEKVPLILVGNKVDLEPEREVMSSEGRALAQEWGCPFMETSAKSKSMVDELFAEIVRQMNYSSLPEKQDQCCTTCVVQ [RAP2C] | -0.0697 | 56.9 | 55.4 | 0.0732 | 1.5 | -1.73
MRGEQGAAGARVLQFTNCRILRGGKLLREDLWVRGGRILDPEKLFFEERRVADERRDCGGRILAPGFIDVQINGGFGVDFSQATEDVGSGVALVARRILSHGVTSFCPTLVTSPPEVYHKVVPQIPVKSGGPHGAGVLGLHLEGPFISREKRGAHPEAHLRSFEADAFQDLLATYGPLDNVRIVTLAPELGRSHEVIRALTARGICVSLGHSVADLRAAEDAVWSGATFITHLFNAMLPFHHRDPGIVGLLTSDRLPAGRCIFYGMIADGTHTNPAALRIAHRAHPQGLVLVTDAIPALGLGNGRHTLGQQEVEVDGLTAYVAGTKTLSGSIAPMDVCVRHFLQATGCSMESALEAASLHPAQLLGLEKSKGTLDFGADADFVVLDDSLHVQATYISGELVWQADAARQ [AMDHD2] | -0.0923 | 55.1 | 54.3 | -0.0483 | -1.01 | -2.12
MRGFGPGLTARRLLPLRLPPRPPGPRLASGQAAGALERAMDELLRRAVPPTPAYELREKTPAPAEGQCADFVSFYGGLAETAQRAELLGRLARGFGVDHGQVAEQSAGVLHLRQQQREAAVLLQAEDRLRYALVPRYRGLFHHISKLDGGVRFLVQLRADLLEAQALKLVEGPDVREMNGVLKGMLSEWFSSGFLNLERVTWHSPCEVLQKISEAEAVHPVKNWMDMKRRVGPYRRCYFFSHCSTPGEPLVVLHVALTGDISSNIQAIVKEHPPSETEEKNKITAAIFYSISLTQQGLQGVELGTFLIKRVVKELQREFPHLGVFSSLSPIPGFTKWLLGLLNSQTKEHGRNELFTDSECKEISEITGGPINETLKLLLSSSEWVQSEKLVRALQTPLMRLCAWYLYGEKHRGYALNPVANFHLQNGAVLWRINWMADVSLRGITGSCGLMANYRYFLEETGPNSTSYLGSKIIKASEQVLSLVAQFQKNSKL [MLYCD] | -0.194 | 52.7 | 54.3 | 0.0216 | -0.712 | -1.19
MRGPPAWPLRLLEPPSPAEPGRLLPVACVWAAASRVPGSLSPFTGLRPARLWGAGPALLWGVGAARRWRSGCRGGGPGASRGVLGLARLLGLWARGPGSCRCGAFAGPGAPRLPRARFPGGPAAAAWAGDEAWRRGPAAPPGDKGRLRPAAAGLPEARKLLGLAYPERRRLAAAVGFLTMSSVISMSAPFFLGKIIDVIYTNPTVDYSDNLTRLCLGLSAVFLCGAAANAIRVYLMQTSGQRIVNRLRTSLFSSILRQEVAFFDKTRTGELINRLSSDTALLGRSVTENLSDGLRAGAQASVGISMMFFVSPNLATFVLSVVPPVSIIAVIYGRYLRKLTKVTQDSLAQATQLAEERIGNVRTVRAFGKEMTEIEKYASKVDHVMQLARKEAFARAGFFGATGLSGNLIVLSVLYKGGLLMGSAHMTVGELSSFLMYAFWVGISIGGLSSFYSELMKGLGAGGRLWELLEREPKLPFNEGVILNEKSFQGALEFKNVHFAYPARPEVPIFQDFSLSIPSGSVTALVGPSGSGKSTVLSLLLRLYDPASGTISLDGHDIRQLNPVWLRSKIGTVSQEPILFSCSIAENIAYGADDPSSVTAEEIQRVAEVANAVAFIRNFPQGFNTVVGEKGVLLSGGQKQRIAIARALLKNPKILLLDEATSALDAENEYLVQEALDRLMDGRTVLVIAHRLSTIKNANMVAVLDQGKITEYGKHEELLSKPNGIYRKLMNKQSFISA [ABCB10] | -0.029 | 53.8 | 54 | -0.0973 | 0.476 | -0.874
MRKPDSKIVLLGDMNVGKTSLLQRYMERRFPDTVSTVGGAFYLKQWRSYNISIWDTAGREQFHGLGSMYCRGAAAIILTYDVNHRQSLVELEDRFLGLTDTASKDCLFAIVGNKVDLTEEGALAGQEKEECSPNMDAGDRVSPRAPKQVQLEDAVALYKKILKYKMLDEQDVPAAEQMCFETSAKTGYNVDLLFETLFDLVVPMILQQRAERPSHTVDISSHKPPKRTRSGCCA [RAB20] | -0.187 | 54.4 | 53.8 | 0.0752 | 3.91 | 1.44
MRKVVLITGASSGIGLALCKRLLAEDDELHLCLACRNMSKAEAVCAALLASHPTAEVTIVQVDVSNLQSVFRASKELKQRFQRLDCIYLNAGIMPNPQLNIKALFFGLFSRKVIHMFSTAEGLLTQGDKITADGLQEVFETNVFGHFILIRELEPLLCHSDNPSQLIWTSSRSARKSNFSLEDFQHSKGKEPYSSSKYATDLLSVALNRNFNQQGLYSNVACPGTALTNLTYGILPPFIWTLLMPAILLLRFFANAFTLTPYNGTEALVWLFHQKPESLNPLIKYLSATTGFGRNYIMTQKMDLDEDTAEKFYQKLLELEKHIRVTIQKTDNQARLSGSCL [HSD17B7] | -0.161 | 52.8 | 51 | -0.113 | -1.29 | -0.53
